Laboratory results as given in US20130040894A1, “INHIBITION OR ACTIVATION OF SERINE/THREONINE ULK3 KINASE ACTIVITY” (TALLINN UNIVERSITY OF TECHNOLOGY, priority 2009, published 2013).

What was measured:
[1] = target: T1, FLAG-tagged GLI2, P10070
T1 chain: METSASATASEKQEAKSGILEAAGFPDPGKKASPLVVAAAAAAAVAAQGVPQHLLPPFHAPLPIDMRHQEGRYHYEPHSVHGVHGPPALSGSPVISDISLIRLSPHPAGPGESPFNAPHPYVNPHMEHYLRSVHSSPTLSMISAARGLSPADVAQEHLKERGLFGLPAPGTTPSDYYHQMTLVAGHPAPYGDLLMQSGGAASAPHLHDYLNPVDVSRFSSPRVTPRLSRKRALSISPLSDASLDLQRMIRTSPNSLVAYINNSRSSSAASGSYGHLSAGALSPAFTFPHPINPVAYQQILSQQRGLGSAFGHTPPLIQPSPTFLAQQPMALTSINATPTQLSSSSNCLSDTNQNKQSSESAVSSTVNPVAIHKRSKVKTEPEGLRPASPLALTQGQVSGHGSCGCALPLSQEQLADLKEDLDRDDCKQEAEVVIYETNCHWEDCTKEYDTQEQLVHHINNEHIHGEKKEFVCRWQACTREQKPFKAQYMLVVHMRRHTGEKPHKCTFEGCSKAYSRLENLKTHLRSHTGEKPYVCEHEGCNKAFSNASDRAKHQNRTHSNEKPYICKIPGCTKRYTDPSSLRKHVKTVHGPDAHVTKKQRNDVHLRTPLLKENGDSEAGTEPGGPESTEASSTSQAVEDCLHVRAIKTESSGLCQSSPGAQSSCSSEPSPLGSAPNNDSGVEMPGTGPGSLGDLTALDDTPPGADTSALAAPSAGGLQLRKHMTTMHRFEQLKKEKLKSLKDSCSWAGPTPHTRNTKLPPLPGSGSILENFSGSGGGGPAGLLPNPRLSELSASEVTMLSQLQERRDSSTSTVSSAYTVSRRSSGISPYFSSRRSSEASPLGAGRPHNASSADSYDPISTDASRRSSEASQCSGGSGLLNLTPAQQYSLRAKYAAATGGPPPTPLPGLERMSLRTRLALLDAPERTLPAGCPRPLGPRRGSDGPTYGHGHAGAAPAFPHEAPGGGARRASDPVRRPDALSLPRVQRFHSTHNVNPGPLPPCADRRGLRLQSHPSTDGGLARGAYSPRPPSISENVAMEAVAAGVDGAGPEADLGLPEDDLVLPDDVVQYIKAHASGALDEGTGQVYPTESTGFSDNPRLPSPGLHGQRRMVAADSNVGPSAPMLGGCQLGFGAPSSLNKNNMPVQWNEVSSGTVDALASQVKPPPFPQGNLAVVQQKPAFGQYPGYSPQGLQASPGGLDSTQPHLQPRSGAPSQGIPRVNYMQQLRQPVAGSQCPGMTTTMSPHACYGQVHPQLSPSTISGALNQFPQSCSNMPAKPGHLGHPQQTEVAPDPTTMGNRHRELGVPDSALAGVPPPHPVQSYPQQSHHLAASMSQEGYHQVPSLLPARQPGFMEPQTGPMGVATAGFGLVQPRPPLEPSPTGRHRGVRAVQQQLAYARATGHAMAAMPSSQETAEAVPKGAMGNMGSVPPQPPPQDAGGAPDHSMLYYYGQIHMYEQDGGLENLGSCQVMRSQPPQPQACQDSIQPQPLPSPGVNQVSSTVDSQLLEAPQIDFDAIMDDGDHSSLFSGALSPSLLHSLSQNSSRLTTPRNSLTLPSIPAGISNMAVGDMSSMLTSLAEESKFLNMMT

[2] = target: T2, FLAG-tagged GLI3, P10071
T2 chain: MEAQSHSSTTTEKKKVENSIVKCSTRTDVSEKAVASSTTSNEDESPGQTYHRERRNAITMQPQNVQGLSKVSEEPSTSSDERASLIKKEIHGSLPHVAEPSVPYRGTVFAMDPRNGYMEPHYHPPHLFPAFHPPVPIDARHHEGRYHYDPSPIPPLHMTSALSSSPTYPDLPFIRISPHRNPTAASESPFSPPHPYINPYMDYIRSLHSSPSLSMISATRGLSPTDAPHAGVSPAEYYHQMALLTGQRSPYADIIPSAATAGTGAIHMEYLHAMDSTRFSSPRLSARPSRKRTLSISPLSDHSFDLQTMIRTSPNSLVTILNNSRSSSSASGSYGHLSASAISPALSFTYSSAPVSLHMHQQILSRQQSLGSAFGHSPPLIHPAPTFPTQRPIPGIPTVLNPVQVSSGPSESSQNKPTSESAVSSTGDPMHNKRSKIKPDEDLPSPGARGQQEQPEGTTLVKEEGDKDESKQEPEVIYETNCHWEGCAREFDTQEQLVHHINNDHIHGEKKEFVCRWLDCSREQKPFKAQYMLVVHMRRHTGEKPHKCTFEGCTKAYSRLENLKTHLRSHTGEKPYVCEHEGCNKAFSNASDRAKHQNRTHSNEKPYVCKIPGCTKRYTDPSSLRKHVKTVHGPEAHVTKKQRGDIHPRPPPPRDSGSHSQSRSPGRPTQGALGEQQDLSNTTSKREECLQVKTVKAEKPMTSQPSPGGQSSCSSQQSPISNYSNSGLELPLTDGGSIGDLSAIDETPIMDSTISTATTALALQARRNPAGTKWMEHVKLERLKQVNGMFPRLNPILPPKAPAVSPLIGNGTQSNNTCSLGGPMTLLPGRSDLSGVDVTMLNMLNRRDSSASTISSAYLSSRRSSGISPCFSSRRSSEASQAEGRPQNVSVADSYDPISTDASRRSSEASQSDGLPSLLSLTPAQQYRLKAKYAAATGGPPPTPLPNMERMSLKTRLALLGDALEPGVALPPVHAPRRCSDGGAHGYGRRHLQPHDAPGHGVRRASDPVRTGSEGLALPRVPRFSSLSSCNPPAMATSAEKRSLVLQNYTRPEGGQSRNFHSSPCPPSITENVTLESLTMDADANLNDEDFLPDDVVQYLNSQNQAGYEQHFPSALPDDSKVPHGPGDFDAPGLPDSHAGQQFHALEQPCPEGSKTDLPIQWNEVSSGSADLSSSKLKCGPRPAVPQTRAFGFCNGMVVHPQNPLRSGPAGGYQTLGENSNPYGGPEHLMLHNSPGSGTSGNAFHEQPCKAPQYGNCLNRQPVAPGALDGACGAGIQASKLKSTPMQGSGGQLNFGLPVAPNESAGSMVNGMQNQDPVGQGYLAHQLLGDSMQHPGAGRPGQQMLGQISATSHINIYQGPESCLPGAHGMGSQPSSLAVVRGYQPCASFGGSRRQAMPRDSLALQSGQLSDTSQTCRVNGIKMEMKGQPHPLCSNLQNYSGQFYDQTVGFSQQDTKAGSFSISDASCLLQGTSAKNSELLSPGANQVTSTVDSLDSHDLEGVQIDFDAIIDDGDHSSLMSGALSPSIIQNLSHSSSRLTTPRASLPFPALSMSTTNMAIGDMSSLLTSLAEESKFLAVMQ

B1: FLAG-tagged wild-type ULK3 (human serine/threonine kinase ULK3) (protein)
chain: MAGPGWGPPRLDGFILTERLGSGTYATVYKAYAKKDTREVVAIKCVAKKSLNKASVENLLTEIEILKGIRHPHIVQLKDFQWDSDNIYLIMEFCAGGDLSRFIHTRRILPEKVARVFMQQLASALQFLHERNISHLDLKPQNILLSSLEKPHLKLADFGFAQHMSPWDEKHVLRGSPLYMAPEMVCQRQYDARVDLWSMGVILYEALFGQPPFASRSFSELEEKIRSNRVIELPLRPLLSRDCRDLLQRLLERDPSRRISFQDFFAHPWVDLEHMPSGESLGRATALVVQAVKKDQEGDSAAALSLYCKALDFFVPALHYEVDAQRKEAIKAKVGQYVSRAEELKAIVSSSNQALLRQGTSARDLLREMARDKPRLLAALEVASAAMAKEEAAGGEQDALDLYQHSLGELLLLLAAEPPGRRRELLHTEVQNLMARAEYLKEQVKMRESRWEADTLDKEGLSESVRSSCTLQ
in vitro kinase assay, phosphorylation signal (32P autoradiography) [1]: The strongest phosphorylation signal was detected in the case of GLI2
in vitro kinase assay, phosphorylation signal (32P autoradiography) [2]: GLI1 and GLI3 were also phosphorylated by ULK3, but with significantly lower intensity as compared to GLI2
